Experiment: soluble on expression in E. coli; label from the status in PepcDB or PDB records

| Sequence | soluble on expression in E. coli |
| --- | --- |
| MSLKDICLKVFGDYACFTRPEMKVERVSYDIITPSAARAIFEAILWKPAIRWRVTKIEVLKPIRWISVRRNEVGAVASVRTAQTAMQAGRGDLGLYIEEERQQRAGLFLREVAYRLHARCEPTDRKGEQESPDKFLAMFHRRATNGQCFNQPYLGCREFAAHFEPVTNLDAAMADEPPITETRDLGWMLHDIDFANGIQPKFFRAHMQQGVIRVPEWNSEGVKGEGHHHHHH | soluble |
| MGSDKIHHHHHHMQDTKYYEPTNIFRQPAINIKKRSDKKRILQSMMTLSTYKKTWQNNTSKMNSPILRKASDNFNDYYTTKKLKSDYWKLYGVDESELSIPSDMSIVDNILLVSTMNEKDNLKLFEISAEKKLKELQTITVPGKPITCICLLPMVDFPPQIFPSSQINPNHNQLILTGHQDGIVNLIATSTYKGCAKIIKRFNHNKFLKSTVSTSIPILEITPKTAPILKVSPWNKTGFVSLLNDSLFIYDLKSNLDCIKTPIFLQSYPGINSFAVNEFHDPFLLALVGSKFGPNGISLLDLRTNLYIPDILDNSISAGCGKDHLQRKNTSLDCVWISNHHVAQSLNDKIQIWDIQSCDGKPVCELYAKKGYIESLKFNENTGALYSSDDQGFVICWDLQNLQNMKYGELVHGFNSISLDSESELLLTKQVFQCGNIIVSGMSDKNICLKSNDTKANGKGCGFLFLDMANDGSLVTLDNFCELGLHQICQVQFNVDTGKIIDGNGTGKSGISDSSMLSLSNESDHSMTETSDDMFSNSGNWDCSSANTVSEGRLNDDQEDIVFTKRMYSVNDVHLSGSTIDTTVV | not soluble |
| MPVNATGVSFSSFGISYHKDNSFRGTIRGKNDEVVKCSMGERSIRFNVNKFSGCILETVSRQSTKDIHGWVSDERTVYPSRVINQEIDNCCLQKNAKISSEERKMVFSLVSKEFELTLDVKAAQSSINHIIIGNASFGKKMDALCDGMSRAVKNSTTDYIANVLADKFYQKHIAPGVDIVKLRNEIPGYMSRVIQG | not soluble |
| MYAMNLARYKYCPDIKEKGLSGSPRLILFTSAECHYSMKKAASFLGIGTENVCFVETDGRGKMIPEELEKQVWQARKEGAAPFLVCATSGTTVLGAFDPLDEIADICERHSLWLHVDASWGGSALMSRKHRKLLHGIHRADSVAWNPHKMLMAGIQCCALLVKDKSDLLKKCYSAKASYLFQQDKFYDVSYDTGDKSIQCSRRPDAFKFWMTWKALGTLGLEERVNRALALSRYLVDEIKKREGFKLLMEPEYANICFWYIPPSLREMEEGPEFWAKLNLVAPAIKERMMKKGSLMLGYQPHRGKVNFFRQVVISPQVSREDMDFLLDEIDLLGKDM | soluble |
| GSMAPLGGAPRLVLLFSGKRKSGKDFVTEALQSRLGADVCAVLRLSGPLKEQYAQEHGLNFQRLLDTSTYKEAFRKDMIRWGEEKRQADPGFFCRKIVEGISQPIWLVSDTRRVSDIQWFREAYGAVTQTVRVVALEQSRQQRGWVFTPGVDDAESECGLDNFGDFDWVIENHGVEQRLEEQLENLIEFIRSRLKLHHHHHH | soluble |
| MEVPSLFTNFFAVNNPDSPPARQKTKLRELEHRFWQEHLPGDDDDHSTAISSLAIVTGLTKAQVSRISIAFATLADLPELKALQQKLYHLDLSRLITISNELAGINPDNLAGADAILTEYLTATSPNQILPSPASIGRKIKEIRDLLDDARATGSRGTQDDSSFGVTFSPDGTAEIGASVDAVDGHIINDAVTQHAKKNDLTYGEAFSDILRNNIQVKVVLNLYTAKDLANAPVWASGIGWLDAKTGTFWSEKANKEQDMDAAAKISTDKHDPPPALRDALIGRDGTCRFPGCSVPALKTQADHRIPYEEGGETCLGGIGCLCQHHHNMKTDGRVTYLLDPFSGIIVWLMGDGTWAVSEPNGPLNPKNARWAQTVAQHRARHHKRWVKEDAKLEHHHHHH | not soluble |
| MGSDKIHHHHHHMATGSNIRTYFQGSWHEGDAPIIRAADHGAWLGSGVFDGARYFDGMAPDLEAHCARVNRSAEALMLTPTVSTQDMVEIVREGLKAYGPDQAVYIRPMYWGIDGDPTAIIPQADSTGFAVCLEEIPMAPATASATLTTTRFRRPVLEDAVVNAKAGCLYPNNARMLREARSKGFTNALVADALGNVAETATANIFMVKDGEVFTPIANGTFLAGITRARHIKNLRADGVPVHETVLSFADFHAADEVFMSGNMSKVTPVTALDDTQYQIGPIARRARALYWDWAKSTA | not soluble |
| MAHHHHHHMKDEQISCYYLTEKGKNKCFKNIKLITFDLDHTIWNIDALLNYADNECYKYMEQNYKRLYDYLSKEYALSMTNLVKELLERNIDMNKDGVQILTRIRTDALKYLAKQTNYDEIKFASEIQKLWKEKKKDVHLFISPGTLEYLRELKNRGYILGAITNGDSDVNEIKFLNEIFSFVVRSMDYNFAKPNVEIFNIAENLLKEKNINFHVDEWLHVGDDVYTDIMGAKNKNINCAWITMFREGREISHKEWYSYLKLKYEQNDNKQTLSQYDPYADGLFAKFRKKDVVLPFDYIDIEIRHCRDLDSILA | not soluble |
| MAGHSIPHFQNDGGHSVIEIGVKEFMCTGASVPFDHPHIFIDMGDDNEKVCSYCSTLYRYNPSLKAEQTNPPGCVFHVKAA | not soluble |
| MGSDKIHHHHHHMVSMTKLVELKNSEASAVVLPRHGAGLASFDFLWRGSRLPAFRPLITEPQHEHDLALYLLAPFSNRIGGGGFAWNGRRHDLRPNVEGEPCPLHGDAWQQHWTVMDQGRTHVTLQLLSRSIPPFAYDAEITWTLDGPSLSGALTLIHRGEDPMPYGGGFHPWLVRDSDTQLHARADGWWSEDSLHLPKRWHALVDNDSSGFGAPRSLPSNFFNTVYTGWHGRADIWWPGRGLALQIEAQAPLNRYIVYSPGAEADFFCFEPVSHDVNAHNAPSPLKHGLVELAEGESLHLSARFTATLR | not soluble |
| MALIVQKFGGTSVGTVERIQAVAQRIKRTVQGGNSLVVVVSAMGKSTDVLVDLAQQISPNPCRREMDMLLSTGEQVSIALLSLALQEIDQPAISLTGAQVGIVTEAEHSRARILEIRPDRLEHHLREGKVVVVAGFQGISSVEHLEITTLGRGGSDTSAVALAAALKADFCEIYTDVPGILTTDPRLVPEAQLMAEITCDEMLELASLGAKVLHPRAVEIARNYGIPLVVRSSWSDEPGTKVVAPPVQNRSLVGLEIAKAVDGVEYDADQAKVALLRVPDRPGVASKLFRDIAQQQVDIDLIIQSIHDGNSNDIAFTVVKDLLNTAEAVTSAIAPALRSYPEADQEAEIIVEKGIAKIAIAGAGMIGRPGIAAKMFKTLADVGVNIEMISTSEVKVSCVIDQRDADRAIAALSNAFGVTLSPPKNQTDTSHLPAVRGVALDQDQAQIAIRHVPDRPGMAAQLFTALAEANISVDMIIQSQRCRINQGTPCRDIAFMVAEGDSSQAEAILQPLIKDWLDAAIVVNKAIAKVSIVGSGMIGHPGVAAHFFAALAQENINIEMIATSEIKISCVVPQDRGVDALKAAHSAFNLAGTKTVTVPA | soluble |
| MMTKYGVVGTGYFGAELARFMSKVEGAKITAIYDPVNAAPIAKELNCVATATMEALCSHPDVDCVIIASPNYLHKAPVIAAAKAGKHVFCEKPIALNYQDCKDMVDACKEAGVTFMAGHVMNFFHGVRHAKALIKAGEIGEVTQVHTKRNGFEDVQDEISWKKIRAKSGGHLYHHIHELDCTLFIMDETPSLVSMAAGNVAHKGEKFGDEDDVVLITLEFESGRFATLQWGSSFHYPEHYVLIEGTTGAILIDMQNTAGYLIKAGKKTHFLVHESQAEDDDRRNGNISSEMDGAIAYGKPGKRTPMWLSSIMKLEMQYLHDVINGLEPGEEFAKLLTGEAATNAIATADAATLSSNEGRKVKLTEILG | not soluble |
| MAHHHHHHMSSEHWVFFGLPPFFTEQHSSATLDRQCTLWSNLLLDHAIYHAQRTAGGDTNALLRFYTTQSDIFYNPAINKRLSPEGAHTMLQSLVARHPNHVVIVSDGGPRDFSVLVCTTEDGFKGMEETLLRYILDHGEVQTTAMLSKKGTVMTFDELASGAALGYGQTRSAYLARFSSAAVPVADVGRLSEEQAIRMYLHALNRRPVSAMRPFKVTLFNLDGTATQPYQGVKFGGE | soluble |
| MNDITASSSVILDSLLIDDSLITCEVCFEVFNHENRPPKLLPCGHNFCESCIFSLCLHQEYYLLDSIKCPTCRREFTTNTARQAPTNYDLCKILENLFRRKEQNVTVIEVPELVHNLPPPMAEVSSSATKIVTSQQQQQQQPAVATKMPRHHVSKKMKALAKRTEESKHFRCADCQRKISQKNLFRVSRYCVDCTSTSRMTIVCLECCVNHHNGHDLLTEDSLHHNQLKTLSDLRKLRHRILDSSDEFDRRADEIRTSGMDVCGGLSAEKHNLLTYTLASIDDVMRRIEMAPILFPPVLRTIRDEQSHNFSRLEKLSAQLEKSLVSRKNTKPTSLTFIENMNDTTYQGLQRSVQNQSLNKSTLSIRQSRVSLRTDDSLFHESISSLTRLMHQHPMCLQLEFHHSTVSSKDTVTQRKQKIMSCAHATTSMLDMDLTQVSMVPIFADVLLNCFYQLNRLSKNKFVGDKKYRRCDIWKQVQCSYTELFGITAKHFPSHHPERVDILDDLAYLCHLYSDVADQGTVTICLIEAARARASDSSGLTEIEQQRSEERLELIDEHLTECRRLQKLLELRKTSKTKKNGGLKRLFGGCFIAQEKANDSLVY | not soluble |
| MDIWVNLLSDRLESPNFEFITDFIGGKCVVQKDYLEDEKSQSSSGWLLHVYFRPEEFLDRPFVADIIFRCGTRRREVFSVLLKNDCFFAHMRVKEKTGRLIIAARIRKMLCELDLSKPSGSRQFVVQNFENQLKDGRIFYVNLAKLGQIGGDLFKKWQTVENVQQLSLANETMENRMIEVLMEATAKYDDIVVIRHSFHRLIQLAQTYRMHKLMRVIEENLSETKLMNWDEKILLALQYRMSQLYVQVQRKYLLTPWNILCRIQRLYLSNYAAKSGNASNPYDMIHKNLMQMVMMSDENICIG | not soluble |
| GSHMTGISRETSSDVALASHILTALREKQAPELSLSSQDLELVTKEDPKALAVALNWDIKKTETVQEACERELALRLQQTQSLHSLRSISASKASPPGDLQNPKRARQDPT | soluble |
| MKQEETLTKVKVAEVTHSIFYAPLYVAESKGFFKEEGLDVDVNTTWGGDKTMTSLLSNGSDIALVGSETSIYVEAQGAKDPVINFAQLTQTDGTFLVAREDVEHFDWDQLKGKTFLGQRKGGMPQMVGEYVLNKHKIDPHKDIDLIQNIDFANIANAFASGTGEYVQLFEPQLLSLRKKASAISWLHSEKNQERFLIRLLWRNKAILEHHHHHH | not soluble |
| MGVKTFQFPFAEQLEKVAEQFPTFQILNEEGEVVNEEAMPELSDEQLKELMRRMVYTRILDQRSISLNRQGRLGFYAPTAGQEASQIASHFALEKEDFILPGYRDVPQIIWHGLPLYQAFLFSRGHFHGNQIPEGVNVLPPQIIIGAQYIQAAGVALGLKMRGKKAVAITYTGDGGTSQGDFYEGINFAGAFKAPAIFVVQNNRFAISTPVEKQTVAKTLAQKAVAAGIPGIQVDGMDPLAVYAAVKAARERAINGEGPTLIETLCFRYGPHTMSGDDPTRYRSKELENEWAKKDPLVRFRKFLEAKGLWSEEEENNVIEQAKEEIKEAIKKADETPKQKVTDLISIMFEELPFNLKEQYEIYKEKESK | soluble |
| MPLYKLTYFDARGYAEPARILFHLAGVPFEDNRLTHGDGSWEKIKDKTPFGQVPVLSVDGFDIPQSAAIIRYLANKFGYAGKTPEEQAWADAIVDQFKDFMGAFRQLIMAQRSGKPAEEIAKISSEVAIPARDSYFKILNGLLEKSKSGFLVGDGLTFADIVVVENLTTLEKNQFFTASEHPKLSALREKVHAVPAIKTWVATRPDTQF | not soluble |
| MSLKILVLGIGNILFGDEGIGVHLSNLLKVNYRFEGPHQVDVIDGGTLAQLLIPLITSYDYVIVIDCVDAGGGKIGEVYFFDFDNVPNVITWQGSAHEVEMLQTLRMTEVNGDLPPVKIVGVIPSIIGSETAFDLSKEVAEASVTMEKIVLNHLQELGVEITRIDSKTIDEIAPLSYKGEGHHHHHH | soluble |
